Holding throughout (test): SPR, antibody captured, C2 as analyte;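 also: biacore SPR at 37 °C, anti-C2 mAbs captured via goat anti-human IgG on CM5 chips, double-referenced sensorgrams fit to a 1:1 kinetic or steady-state model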
Assay [1] addresses T1, human C2 N471A (human, UniProt P06681 21-752).
T1 sequence: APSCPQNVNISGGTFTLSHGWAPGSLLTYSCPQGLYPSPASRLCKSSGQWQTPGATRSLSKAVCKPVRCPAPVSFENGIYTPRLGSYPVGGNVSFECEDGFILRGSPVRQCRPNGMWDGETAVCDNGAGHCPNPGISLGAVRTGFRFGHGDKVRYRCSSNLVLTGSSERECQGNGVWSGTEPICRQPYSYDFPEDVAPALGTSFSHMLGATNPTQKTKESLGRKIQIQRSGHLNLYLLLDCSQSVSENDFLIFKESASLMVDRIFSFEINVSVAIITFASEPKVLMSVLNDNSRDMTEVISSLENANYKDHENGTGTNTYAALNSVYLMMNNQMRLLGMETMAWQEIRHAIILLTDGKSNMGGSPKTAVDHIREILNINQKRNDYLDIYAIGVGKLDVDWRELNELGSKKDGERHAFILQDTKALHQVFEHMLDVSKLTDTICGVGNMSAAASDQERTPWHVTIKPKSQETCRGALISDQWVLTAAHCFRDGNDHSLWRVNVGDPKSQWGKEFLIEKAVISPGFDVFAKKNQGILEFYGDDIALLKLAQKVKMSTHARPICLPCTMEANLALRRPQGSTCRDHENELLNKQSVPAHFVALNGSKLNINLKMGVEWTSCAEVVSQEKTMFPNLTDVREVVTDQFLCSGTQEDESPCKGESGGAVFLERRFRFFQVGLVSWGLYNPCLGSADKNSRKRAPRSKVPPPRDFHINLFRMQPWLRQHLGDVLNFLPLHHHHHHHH

For assay [2], the target named is T2, human C2 L279A (human, UniProt P06681 21-752).
T2 sequence: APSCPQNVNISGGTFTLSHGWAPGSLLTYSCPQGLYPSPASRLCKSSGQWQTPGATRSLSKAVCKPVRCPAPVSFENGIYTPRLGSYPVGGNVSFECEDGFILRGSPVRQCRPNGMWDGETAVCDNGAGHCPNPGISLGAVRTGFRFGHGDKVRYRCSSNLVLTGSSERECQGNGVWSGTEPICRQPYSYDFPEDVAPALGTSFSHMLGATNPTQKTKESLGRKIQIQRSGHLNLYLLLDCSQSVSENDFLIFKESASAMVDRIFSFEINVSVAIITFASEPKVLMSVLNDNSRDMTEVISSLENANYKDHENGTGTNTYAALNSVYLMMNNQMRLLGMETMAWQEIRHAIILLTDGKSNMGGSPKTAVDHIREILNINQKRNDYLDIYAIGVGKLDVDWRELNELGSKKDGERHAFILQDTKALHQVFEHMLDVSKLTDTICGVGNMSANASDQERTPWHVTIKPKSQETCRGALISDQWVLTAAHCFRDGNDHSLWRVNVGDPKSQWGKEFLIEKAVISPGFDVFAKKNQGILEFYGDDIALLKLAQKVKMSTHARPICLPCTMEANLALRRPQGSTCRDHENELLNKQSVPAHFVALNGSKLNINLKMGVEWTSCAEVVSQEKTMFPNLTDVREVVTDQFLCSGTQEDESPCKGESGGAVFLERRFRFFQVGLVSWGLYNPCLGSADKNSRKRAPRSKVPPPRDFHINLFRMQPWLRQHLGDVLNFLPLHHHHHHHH

Assay [3] has as its target T3, human C2 P718A (human, UniProt P06681 21-752).
T3 sequence: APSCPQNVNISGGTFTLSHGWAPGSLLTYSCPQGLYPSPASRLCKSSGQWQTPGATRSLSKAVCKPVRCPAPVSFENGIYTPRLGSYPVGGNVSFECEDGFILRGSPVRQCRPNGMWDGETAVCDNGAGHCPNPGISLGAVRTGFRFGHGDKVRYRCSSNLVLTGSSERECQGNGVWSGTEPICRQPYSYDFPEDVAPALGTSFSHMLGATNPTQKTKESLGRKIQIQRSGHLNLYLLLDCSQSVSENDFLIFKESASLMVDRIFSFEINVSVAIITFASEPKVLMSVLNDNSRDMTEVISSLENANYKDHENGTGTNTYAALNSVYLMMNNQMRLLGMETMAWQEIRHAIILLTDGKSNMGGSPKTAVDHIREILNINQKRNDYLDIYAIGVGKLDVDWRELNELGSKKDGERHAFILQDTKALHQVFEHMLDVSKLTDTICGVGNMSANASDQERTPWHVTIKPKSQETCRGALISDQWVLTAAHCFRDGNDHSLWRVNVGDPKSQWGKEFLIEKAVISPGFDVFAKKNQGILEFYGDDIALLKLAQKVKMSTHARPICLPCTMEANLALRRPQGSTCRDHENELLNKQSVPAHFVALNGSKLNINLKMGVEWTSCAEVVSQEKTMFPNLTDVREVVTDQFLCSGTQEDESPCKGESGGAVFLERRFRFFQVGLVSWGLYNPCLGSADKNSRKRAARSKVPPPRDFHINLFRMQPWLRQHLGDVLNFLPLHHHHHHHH

Assay [4] has as its target T4, human C2 A470S (human, UniProt P06681 21-752).
T4 sequence: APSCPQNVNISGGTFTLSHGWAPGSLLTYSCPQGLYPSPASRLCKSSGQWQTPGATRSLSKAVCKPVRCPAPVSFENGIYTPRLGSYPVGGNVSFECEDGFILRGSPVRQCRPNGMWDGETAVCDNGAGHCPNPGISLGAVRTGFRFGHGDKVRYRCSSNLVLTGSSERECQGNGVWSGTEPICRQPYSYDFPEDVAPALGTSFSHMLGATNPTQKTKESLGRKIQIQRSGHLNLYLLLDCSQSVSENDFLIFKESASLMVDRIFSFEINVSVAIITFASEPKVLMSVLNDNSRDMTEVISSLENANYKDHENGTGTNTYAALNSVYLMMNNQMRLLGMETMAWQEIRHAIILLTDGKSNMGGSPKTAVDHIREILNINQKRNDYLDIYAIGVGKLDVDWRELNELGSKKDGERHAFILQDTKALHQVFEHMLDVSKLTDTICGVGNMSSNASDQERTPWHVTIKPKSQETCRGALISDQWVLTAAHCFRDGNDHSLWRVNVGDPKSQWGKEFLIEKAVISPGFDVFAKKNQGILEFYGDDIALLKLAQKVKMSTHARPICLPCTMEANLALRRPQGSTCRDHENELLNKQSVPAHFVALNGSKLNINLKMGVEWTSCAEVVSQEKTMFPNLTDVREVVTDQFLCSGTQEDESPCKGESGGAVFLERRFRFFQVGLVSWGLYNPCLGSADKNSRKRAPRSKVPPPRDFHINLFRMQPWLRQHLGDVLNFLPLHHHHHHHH

B1: RF16-226 (antibody, human IgG4 S228P, lambda)
heavy: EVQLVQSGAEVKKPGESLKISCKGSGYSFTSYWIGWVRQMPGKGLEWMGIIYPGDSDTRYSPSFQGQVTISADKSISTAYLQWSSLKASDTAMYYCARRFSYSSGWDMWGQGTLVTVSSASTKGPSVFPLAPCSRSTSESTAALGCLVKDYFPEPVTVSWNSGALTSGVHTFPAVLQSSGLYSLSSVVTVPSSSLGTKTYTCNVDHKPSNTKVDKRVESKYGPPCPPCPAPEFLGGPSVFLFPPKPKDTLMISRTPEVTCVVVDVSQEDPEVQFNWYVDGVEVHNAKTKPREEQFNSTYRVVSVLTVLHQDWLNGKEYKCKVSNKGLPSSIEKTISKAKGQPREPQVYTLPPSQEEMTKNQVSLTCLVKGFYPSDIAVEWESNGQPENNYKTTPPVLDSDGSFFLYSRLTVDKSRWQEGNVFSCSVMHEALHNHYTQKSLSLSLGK
light: SYELTQPPSVSVSPGQTARITCSGDALTSKYVAWYQQKSGLAPLLVIYEDTRRPSGIPAKFSGSSSGSVATLTISGAHGDDEADYYCYSTDASGHQRVFGGGTKLTVLSQPKAAPSVTLFPPSSEELQANKATLVCLISDFYPGAVTVAWKADGSPVKAGVETTKPSKQSNNKYAASSYLSLTPEQWKSHRSYSCQVTHEGSTVEKTVAPTECS
notes: pH-dependent anti-C2 antibody from a phage display library; also called WT
Take B1: the Kd – broadly, the equilibrium constant for the complex coming apart – in assay [1] worked out at 9.7 nM; in assay [2] it was 54.4 nM; in assay [3], 15.2 nM; in assay [4], 7.8 nM.

The record behind these values is patent US20220332804A1 (CSL INNOVATION, published 2022).
